Source: publication PMC12365241
Where “and” joins values, the source holds several entries; their conditions need not be identical. Identical values can stand only once.

Target: PorK (Porphyromonas gingivalis (endogenous))
Experiment: cryo-EM structure

PorK (natural protein)
stoichiometry N: 32 and 33
